Experimental data published in the supplement of paper PMC10567573.

B1: INTS3 (parent)
chain: FSDDEEDLNSKGKKREFRFHPIKE
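Note: lentivirally expressed fusions sorted by FACS into six bins by GFP to DsRed ratio, PSI derived from sequencing read proportions per bin multiplied by bin number.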

Variants of: B1
Assay: protein stability index of a GFP-peptide fusion (GPS, HEK-293T) (PSI 1-6); higher = more stable
Details: c terminus: a fixed tail appended
FSDDEEMLNSKGKKREFRFHPIKE [D7M] gave a protein stability index of 2.59.
For FSDDEECLNSKGKKREFRFHPIKE [D7C], the protein stability index was 1.99.
With FSDDEERLNSKGKKREFRFHPIKE [D7R] the protein stability index was 1.92.
Variant FSDDEETLNSKGKKREFRFHPIKE [D7T] has a protein stability index of 2.58.
Work on FSDDEEHLNSKGKKREFRFHPIKE [D7H] yielded a protein stability index of 2.52.
With FSDDEEVLNSKGKKREFRFHPIKE [D7V] the protein stability index was 2.7.
FSDDEESLNSKGKKREFRFHPIKE [D7S] gave a protein stability index of 2.66.
Work on FSDDEEPLNSKGKKREFRFHPIKE [D7P] yielded a protein stability index of 2.18.
In the case of FSDDEEELNSKGKKREFRFHPIKE [D7E], the protein stability index is reported as 3.14.
Variant FSDDEEILNSKGKKREFRFHPIKE [D7I] has a protein stability index of 2.12.
In the case of FSDDEEWLNSKGKKREFRFHPIKE [D7W], the protein stability index is reported as 2.23.
For FSDDEEALNSKGKKREFRFHPIKE [D7A], the protein stability index was 2.59.
FSDDEENLNSKGKKREFRFHPIKE [D7N] showed a protein stability index of 2.29.
Variant FSDDEEGLNSKGKKREFRFHPIKE [D7G] has a protein stability index of 2.13.
FSDDEEFLNSKGKKREFRFHPIKE [D7F] gave a protein stability index of 2.47.
Work on FSDDEEKLNSKGKKREFRFHPIKE [D7K] yielded a protein stability index of 2.04.
Work on FSDDEELLNSKGKKREFRFHPIKE [D7L] yielded a protein stability index of 2.56.
FSDDEEYLNSKGKKREFRFHPIKE [D7Y] showed a protein stability index of 2.23.
In the case of FSDDEEQLNSKGKKREFRFHPIKE [D7Q], the protein stability index is reported as 2.15.
FSQDEEDLNSKGKKREFRFHPIKE [D3Q] gave a protein stability index of 2.58.
With FSIDEEDLNSKGKKREFRFHPIKE [D3I] the protein stability index was 2.09.
FSSDEEDLNSKGKKREFRFHPIKE [D3S] gave a protein stability index of 2.55.
Variant FSRDEEDLNSKGKKREFRFHPIKE [D3R] has a protein stability index of 2.19.
With FSNDEEDLNSKGKKREFRFHPIKE [D3N] the protein stability index was 2.57.
Variant FSGDEEDLNSKGKKREFRFHPIKE [D3G] has a protein stability index of 2.85.
In the case of FSFDEEDLNSKGKKREFRFHPIKE [D3F], the protein stability index is reported as 2.38.
For FSWDEEDLNSKGKKREFRFHPIKE [D3W], the protein stability index was 2.45.
FSCDEEDLNSKGKKREFRFHPIKE [D3C] showed a protein stability index of 2.42.
For FSADEEDLNSKGKKREFRFHPIKE [D3A], the protein stability index was 2.19.
For FSTDEEDLNSKGKKREFRFHPIKE [D3T], the protein stability index was 2.9.
FSPDEEDLNSKGKKREFRFHPIKE [D3P] gave a protein stability index of 2.29.
Variant FSKDEEDLNSKGKKREFRFHPIKE [D3K] has a protein stability index of 2.59.
FSLDEEDLNSKGKKREFRFHPIKE [D3L] showed a protein stability index of 2.23.
FSYDEEDLNSKGKKREFRFHPIKE [D3Y] showed a protein stability index of 2.32.
FSMDEEDLNSKGKKREFRFHPIKE [D3M] gave a protein stability index of 2.55.
For FSHDEEDLNSKGKKREFRFHPIKE [D3H], the protein stability index was 2.69.
For FSVDEEDLNSKGKKREFRFHPIKE [D3V], the protein stability index was 2.61.
With FSEDEEDLNSKGKKREFRFHPIKE [D3E] the protein stability index was 2.61.
Variant FFDDEEDLNSKGKKREFRFHPIKE [S2F] has a protein stability index of 2.31.
For FEDDEEDLNSKGKKREFRFHPIKE [S2E], the protein stability index was 3.39.
With FPDDEEDLNSKGKKREFRFHPIKE [S2P] the protein stability index was 2.53.
Work on FIDDEEDLNSKGKKREFRFHPIKE [S2I] yielded a protein stability index of 2.39.
With FKDDEEDLNSKGKKREFRFHPIKE [S2K] the protein stability index was 3.23.
Work on FWDDEEDLNSKGKKREFRFHPIKE [S2W] yielded a protein stability index of 2.33.
FGDDEEDLNSKGKKREFRFHPIKE [S2G] gave a protein stability index of 3.22.
FMDDEEDLNSKGKKREFRFHPIKE [S2M] showed a protein stability index of 2.6.
Work on FHDDEEDLNSKGKKREFRFHPIKE [S2H] yielded a protein stability index of 2.3.
With FDDDEEDLNSKGKKREFRFHPIKE [S2D] the protein stability index was 3.34.
FQDDEEDLNSKGKKREFRFHPIKE [S2Q] gave a protein stability index of 2.5.
With FYDDEEDLNSKGKKREFRFHPIKE [S2Y] the protein stability index was 2.43.
Work on FCDDEEDLNSKGKKREFRFHPIKE [S2C] yielded a protein stability index of 2.8.
Work on FTDDEEDLNSKGKKREFRFHPIKE [S2T] yielded a protein stability index of 2.88.
FRDDEEDLNSKGKKREFRFHPIKE [S2R] showed a protein stability index of 2.14.
For FLDDEEDLNSKGKKREFRFHPIKE [S2L], the protein stability index was 2.47.
FVDDEEDLNSKGKKREFRFHPIKE [S2V] gave a protein stability index of 2.2.
With FADDEEDLNSKGKKREFRFHPIKE [S2A] the protein stability index was 3.14.
Work on FNDDEEDLNSKGKKREFRFHPIKE [S2N] yielded a protein stability index of 2.92.
With FSDDESDLNSKGKKREFRFHPIKE [E6S] the protein stability index was 2.15.
FSDDENDLNSKGKKREFRFHPIKE [E6N] gave a protein stability index of 2.1.
For FSDDEMDLNSKGKKREFRFHPIKE [E6M], the protein stability index was 2.18.
Variant FSDDEIDLNSKGKKREFRFHPIKE [E6I] has a protein stability index of 2.27.
FSDDEDDLNSKGKKREFRFHPIKE [E6D] gave a protein stability index of 2.8.
Variant FSDDEYDLNSKGKKREFRFHPIKE [E6Y] has a protein stability index of 2.24.
With FSDDETDLNSKGKKREFRFHPIKE [E6T] the protein stability index was 3.08.
In the case of FSDDEGDLNSKGKKREFRFHPIKE [E6G], the protein stability index is reported as 2.7.
Work on FSDDEFDLNSKGKKREFRFHPIKE [E6F] yielded a protein stability index of 2.13.
FSDDEHDLNSKGKKREFRFHPIKE [E6H] showed a protein stability index of 2.29.
In the case of FSDDEADLNSKGKKREFRFHPIKE [E6A], the protein stability index is reported as 2.6.
Variant FSDDEKDLNSKGKKREFRFHPIKE [E6K] has a protein stability index of 2.61.
FSDDERDLNSKGKKREFRFHPIKE [E6R] showed a protein stability index of 2.07.
Variant FSDDELDLNSKGKKREFRFHPIKE [E6L] has a protein stability index of 2.69.
With FSDDECDLNSKGKKREFRFHPIKE [E6C] the protein stability index was 2.62.
With FSDDEVDLNSKGKKREFRFHPIKE [E6V] the protein stability index was 2.27.
Work on FSDDEQDLNSKGKKREFRFHPIKE [E6Q] yielded a protein stability index of 2.29.
Work on FSDDEWDLNSKGKKREFRFHPIKE [E6W] yielded a protein stability index of 2.32.
With FSDDEPDLNSKGKKREFRFHPIKE [E6P] the protein stability index was 2.36.
With FSDDMEDLNSKGKKREFRFHPIKE [E5M] the protein stability index was 2.61.
FSDDDEDLNSKGKKREFRFHPIKE [E5D] gave a protein stability index of 2.68.
Work on FSDDREDLNSKGKKREFRFHPIKE [E5R] yielded a protein stability index of 2.
Variant FSDDSEDLNSKGKKREFRFHPIKE [E5S] has a protein stability index of 2.1.
With FSDDKEDLNSKGKKREFRFHPIKE [E5K] the protein stability index was 2.17.
For FSDDTEDLNSKGKKREFRFHPIKE [E5T], the protein stability index was 2.68.
For FSDDVEDLNSKGKKREFRFHPIKE [E5V], the protein stability index was 2.9.
Variant FSDDPEDLNSKGKKREFRFHPIKE [E5P] has a protein stability index of 2.48.
Work on FSDDWEDLNSKGKKREFRFHPIKE [E5W] yielded a protein stability index of 1.88.
Work on FSDDAEDLNSKGKKREFRFHPIKE [E5A] yielded a protein stability index of 2.81.
In the case of FSDDHEDLNSKGKKREFRFHPIKE [E5H], the protein stability index is reported as 2.18.
With FSDDNEDLNSKGKKREFRFHPIKE [E5N] the protein stability index was 2.39.
In the case of FSDDIEDLNSKGKKREFRFHPIKE [E5I], the protein stability index is reported as 2.81.
In the case of FSDDFEDLNSKGKKREFRFHPIKE [E5F], the protein stability index is reported as 2.41.
In the case of FSDDCEDLNSKGKKREFRFHPIKE [E5C], the protein stability index is reported as 2.49.
For FSDDQEDLNSKGKKREFRFHPIKE [E5Q], the protein stability index was 2.3.
For FSDDYEDLNSKGKKREFRFHPIKE [E5Y], the protein stability index was 2.29.
In the case of FSDDGEDLNSKGKKREFRFHPIKE [E5G], the protein stability index is reported as 2.44.
